Test results reported in US20240425837A1 (Novo Nordisk, published 2024).
No end group written: not given here.

Experiments:
Experiment in all cases: ELISA, biotinylated 12-mer peptide on streptavidin, 2 ug/mL FLAG-tagged VHH, anti-FLAG-HRP
[1] = target: T1, FX activation peptide 12-mer QATSSSGEAPDS (SEQ ID NO:696) (human)
T1 peptide: QATSSSGEAPDS-biotin
Procedure: (§1) To determine whether the binding epitope of the anti-FX VHH polypeptide designated “cmpd #1” are located inside the activation peptide (AP) of human FX (SEQ ID NO:2), an ELISA assay was setup. 41 unique 12-mer peptide fragments spanning the 52 residues of the activation peptide with one amino acid spacing were immobilized in microtiter plate wells followed by incubation with the VHH polypeptide to be tested, and detection of bound ligand was performed by addition of a secondary HRP-labelled antibody.
(§2) The peptides were C-terminally conjugated to biotin and 50 μL of 1 μg/mL peptide solution was used for immobilization in discrete wells of the microtiter plate which was pre-coated with 1 μg/mL streptavidin. Each well was washed with washing buffer (10 mM Tris, 150 mM NaCl, 2.5 mM CaCl₂, 0.05% Tween 20, pH 8.60) followed by addition of 50 μL of 2 μg/mL FLAG-tagged anti-FX VHH polypeptide or IgG antibody to be tested. After 1 hour non-bound VHH polypeptide was washed off using washing buffer.
(§3) Bound anti-FX activation peptide ligand was detected by first binding a HRP-labelled secondary antibody (for FLAG-tagged VHH polypeptide: Anti-FLAG mAb M2-Peroxidase (HRP) (Sigma Aldrich, US) for 1 hour, and then adding 100 μL TMB-1 ELISA substrate (Kem-En-Tec Diagnostics, Denmark).

[2] = target: T2, FX activation peptide 12-mer ATSSSGEAPDSI (SEQ ID NO:697) (human)
T2 peptide: ATSSSGEAPDSI-biotin
Procedure: as §1, §2, §3

[3] = target: T3, FX activation peptide 12-mer SSSGEAPDSITW (SEQ ID NO:699) (human)
T3 peptide: SSSGEAPDSITW-biotin
Procedure: as §1, §2, §3

[4] = target: T4, FX activation peptide 12-mer SSGEAPDSITWK (SEQ ID NO:700) (human)
T4 peptide: SSGEAPDSITWK-biotin
Procedure: as §1, §2, §3

[5] = target: T5, FX activation peptide 12-mer SGEAPDSITWKP (SEQ ID NO:701) (human)
T5 peptide: SGEAPDSITWKP-biotin
Procedure: as §1, §2, §3

[6] = target: T6, FX activation peptide 12-mer APDSITWKPYDA (SEQ ID NO:704) (human)
T6 peptide: APDSITWKPYDA-biotin
Procedure: as §1, §2, §3

[7] = target: T7, FX activation peptide 12-mer PDSITWKPYDAA (SEQ ID NO:705) (human)
T7 peptide: PDSITWKPYDAA-biotin
Procedure: as §1, §2, §3

[8] = target: T8, FX activation peptide 12-mer DSITWKPYDAAD (SEQ ID NO:706) (human)
T8 peptide: DSITWKPYDAAD-biotin
Procedure: as §1, §2, §3

[9] = target: T9, FX activation peptide 12-mer WKPYDAADLDPT (SEQ ID NO:710) (human)
T9 peptide: WKPYDAADLDPT-biotin
Procedure: as §1, §2, §3

[10] = target: T10, FX activation peptide 12-mer PYDAADLDPTEN (SEQ ID NO:712) (human)
T10 peptide: PYDAADLDPTEN-biotin
Procedure: as §1, §2, §3

[11] = target: T11, FX activation peptide 12-mer YDAADLDPTENP (SEQ ID NO:713) (human)
T11 peptide: YDAADLDPTENP-biotin
Procedure: as §1, §2, §3

[12] = target: T12, FX activation peptide 12-mer ADLDPTENPFDL (SEQ ID NO:716) (human)
T12 peptide: ADLDPTENPFDL-biotin
Procedure: as §1, §2, §3

[13] = target: T13, FX activation peptide 12-mer LDPTENPFDLLD (SEQ ID NO:718) (human)
T13 peptide: LDPTENPFDLLD-biotin
Procedure: as §1, §2, §3

[14] = target: T14, FX activation peptide 12-mer ENPFDLLDFNQT (SEQ ID NO:722) (human)
T14 peptide: ENPFDLLDFNQT-biotin
Procedure: as §1, §2, §3

[15] = target: T15, FX activation peptide 12-mer PFDLLDFNQTQP (SEQ ID NO:724) (human)
T15 peptide: PFDLLDFNQTQP-biotin
Procedure: as §1, §2, §3

[16] = target: T16, FX activation peptide 12-mer LDFNQTQPERGD (SEQ ID NO:728) (human)
T16 peptide: LDFNQTQPERGD-biotin
Procedure: as §1, §2, §3

[17] = target: T17, FX activation peptide 12-mer DFNQTQPERGDN (SEQ ID NO:729) (human)
T17 peptide: DFNQTQPERGDN-biotin
Procedure: as §1, §2, §3

[18] = target: T18, FX activation peptide 12-mer NQTQPERGDNNL (SEQ ID NO:731) (human)
T18 peptide: NQTQPERGDNNL-biotin
Procedure: as §1, §2, §3

B1: Cmpd #1 (monovalent anti-FX VHH polypeptide, VHH-1.1) (VHH)
VHH: EVQLVESGGGLVQPGGSLRLSCAASGSIGAFDAMGWYRQAPGKQRELVAGIMVSRGNTNYTDSVKGRFTISRDNAKNTVYLQMNSLKPEDTAVYYCKAVKRPGPGYLEVWGQGTLVTVSS
notes: no protractor; FLAG-tagged in the peptide ELISA
[1]
  ELISA signal normalized relative to the background signal: 0.96 fold of background
[2]
  ELISA signal normalized relative to the background signal: 0.98 fold of background
[3]
  ELISA signal normalized relative to the background signal: 0.86 fold of background
[4]
  ELISA signal normalized relative to the background signal: 0.88 fold of background
[5]
  ELISA signal normalized relative to the background signal: 0.88 fold of background
[6]
  ELISA signal normalized relative to the background signal: 1.06 fold of background
[7]
  ELISA signal normalized relative to the background signal: 1.05 fold of background
[8]
  ELISA signal normalized relative to the background signal: 1.08 fold of background
[9]
  ELISA signal normalized relative to the background signal: 0.89 fold of background
[10]
  ELISA signal normalized relative to the background signal: 0.83 fold of background
[11]
  ELISA signal normalized relative to the background signal: 0.87 fold of background
[12]
  ELISA signal normalized relative to the background signal: 0.91 fold of background
[13]
  ELISA signal normalized relative to the background signal: 1.11 fold of background
[14]
  ELISA signal normalized relative to the background signal: 4 fold of background
[15]
  ELISA signal normalized relative to the background signal: 4.95 fold of background
[16]
  ELISA signal normalized relative to the background signal: 0.97 fold of background
[17]
  ELISA signal normalized relative to the background signal: 0.94 fold of background
[18]
  ELISA signal normalized relative to the background signal: 0.92 fold of background
